Source: the DeepSol protein solubility set

Test: soluble on expression in E. coli; label from the status in PepcDB or PDB records

| Sequence | soluble on expression in E. coli |
| --- | --- |
| MKRVFVTVGTTSFDDLIARVVAHDSVQILKNLGYNQLVLQIGRGTVVPEPFSTESFTLDVYRYKDSLKEDLQQADLVISHAGAGSCLESLEKGKPLVVVVNEKLMNNHQFELAKQLHREGHLFYCTCSMLPELLQSMDLSTLKCYPPGQPEKFSAFLDKVVGLQK | soluble |
| MKRWIAIILIALMPAAQAGKAAKVTLVVDDVPVVQVLQTLAEQERQNLVVSPDVSGTLSLHLTDVPWKQALQTVVNSAGLVLRQEGNILHVHSQAWQKEHSARQDAERLRFQANLPLENRSISLQYADAGELAKAGEKLLSAKGTIMVDKRTNRLLLRDNRAALAELEKWVSQMDLPVAQVELAAHIVTINEKSLRELGVKWTLADATQAGSVGDVTTLSSDLSVAAATSRVGFNIGRINGRLLDLELSALEQKQLLDIIASPRLLASHLQPASIKQGSEIPYQVSSGESGATSVEFKEAVLGMEVTPTVLQKGRIRLKLHISQNVPGQVLQQADGEVLAIDKQEIETQVEVKSGETLALGGIFSRKNKSGSDSVPLLGDIPWLGQLFRHDGKEDERRELVVFITPRLVATELEHHHHHH | soluble |
| MKSDWSTDFFHQSQTPNPYPPIVQQQQQPPHTSSSFFNTNHQLNSHYSSPIHQPPTSLHQPIPMMQNQFKASPPQSDQETAPTTPGSGSGGQMKGERCVGCGSESAIRVHYGASSCHGCKAFFRRSVFEGRVYMCSADNHCDITNESRNRCRACRLRNCLEGGMNPKHVREERSKIERMPGNTCTVSAANGVSHSSSAASASPEHKFSFSLSTIAPSTSTGSFSSGSQPAPIESTNSSGSEAEVLDRKLIQENQLTLFMVALEKQTEQLTDDDVKDNDVMGAWSRDITLTFGLQHPQMVIKRLPLKYSCDRIMEAADLYLSWYRSFVFAADWAMGIPEFRVLPLADQTTLFKQNFMAFGWITFAYKCFELKQHLTGMPLGNGAYIPYNDEDQKKLPERWAQTYGVVCRKLIDLIVKAMIELQITEEEYCLIKTISLFQQDCILSEAGQGICSRMRDRLLDALSAHIEKRYPYHTTSQRMTRALKISLMLPSFSHIGQVESTLITQLTAADLHQLSGVPMEICTAQTTL | not soluble |
| MKSHERGRVILVIDDTDCGRVAAERLVFMARAGFRGDVFVVFGKDIEISPIASYEKEMKIYTSLRVKASKFVEFYRERLEEAGLEVKQVKIILGNVSEEVLRLEKLLNPDLIVFGMEKRGFLKRLLRGDPYKEIIYETKAPVMVCKAGYERKDVDYEKIRCAKCVMG | not soluble |
| MKSIYIILVNYNNFQDTIECVKSLRKIKNYHNYKVIIVDNDSKNDSVSKIKSFLQDCLLIESKKNLGFAGGNNLGIKYAMKHNADYVLLLNNDTVVENDFLDKLLEVHENYGNVGIVGGKIYYYYDKNRIWYAGGKINKFTGKTKHIGVNEIDEGQYNNISITGYVTGCMMLISKGAIEKCGVMDEKYFLYYEETDWNVRIKNAGFKIMYTPLSKIYHKVSSTTGKSDLIMSYYYDRNRYYFVFKNFNWVCKLSVTLYILVRLYAKLFKAIAINDVKRKHLIEYTIISIKNNIMGEIRV | not soluble |
| MKSLDDLDFDNRFARLGGAFSTEVLPDPIAEPRLVVASPAALALLDLPAETSDEALFAELFGGHKLWSEAEPRAMVYSGHQFGSYNPRLGDGRGLLLGEVINQAGEHWDLHLKGAGQTPYSRMGDGRAVLRSSIREFLASEALPALGIPSSRALCVIGSSTPVWREKKESAATLLRLAPSHVRFGHFEYFYYTRQHDQLKQLAAFVLEHHFADCNAAERPYAAMFRQVVERNAELIARWQAYGFCHGVMNTDNMSILGITFDYGPYAFLDDFDANHICNHSDDAGRYSFSNQVPIAHWNLAALAQALTPLVEVDELRASLDLFLPLYQAHYLDLMRRRLGLGVAAENDHALVQELLQRMQGSAVDYSLFFRRLGEETPERALASLRDDFVDREAFDRWAEAYRRRVEEEGGDQESRRRRMHAVNPLYVLRNYLAQQAIEAAEQGDYTEVRLLHQVLSRPFEEQPGMERFTRRPPDWGRHLEISCSS | not soluble |
| MKTALESLRNASALYNEKLVKLMKSFGMTIAEHRLLLLIESGLDTQEKISLATKLDTSTLSRQLKSAVRKELLDKLATGRDKRQLIYSVTEKGQSDLKGIAAELARIDANVFSDWNQNDRALLDQLLDKLEKSI | not soluble |
| MKTGPLNESELEWLDDILTKYNTDHAILDVAELDGLLTAVLSSPQEIEPEQWLVAVWGGADYVPRWASEKEMTRFMNLAFQHMADTAERLNEFPEQFEPLFGLREVDGSELTIVEEWCFGYMRGVALSDWSTLPDSLKPALEAIALHGTEENFERVEKMSPEAFEESVDAIRLAALDLHAYWMAHPQEKAVQQPIKAEEKPGRNDPCPCGSGKKFKQCCLH | not soluble |
| MKTIAIRDVTGIMEPLPGFSVVRTDGSDGQRSIKLNGYKTTNNQYGYQFVKNENTVVYDDEEYIIKTHRERTYRKGVGVEATAIHRIFDDLRNNYIYDEKTGTLRLDAMLSFALEGSGYTFEIDTTDLPASVRVENFGWNNSLALFRDILEKFGAEFDYKGKKIYVAKKFGIQRDEPFLRYRFNVKDPEKEIDTSSFATYIRGYGKKDDKGNYLFAEYTSPLAKIYGIKHADPVKDERYTDKDSLLAAMKKQLNDNIDISLTFTAIELESMGLRDIKKGDYVWCVIEPFDLNVQLRAVSREDYSDETKSPTFTFGTITKKASDIIASFNTTKKAVDKVIDTSTGKIKDSAIDTTGLTTKSEFQSHVDNKIVHITAEERAAWNAASNSIGDLTFITWSTPTLKNGWIQYTANTESYPIQYGKDAIGTVNIRGAVSSGVVGSSTPVFTLPAGFRPPFPHLFIGVSSVATDGTPQYFRGIIKTNGDVCIENISNKDTPNQFIGIYTQFKAI | soluble |
| MKTINLSIFGLGNVGLNLLRIIRSFNEENRLGLKFNVVFVADSLHSYYNERIDIGKVISYKEKGSLDSLEYESISASEALARDFDIVVDATPASADGKKELAFYKETFENGKDVVTANKSGLANFWPEIMEYARSNNRRIRYEATVAGGVPLFSFIDYSVLPSRIKKFRGIVSLTINYFIRELANKREFDDVLSEATKLGIVEKNYKDDLTGLDAARKSVILCNHLYGSSYRLSDVFYEGILDQDRSFGKNERLVTETGIVNGKPSAESRIKSLDSNDYLLTLGKGSLGYQLQTDTNGTLNVSDLYDGPYETAGAVMNDLVILSMFTV | soluble |
| MKTITLRPGQMTLADLRHIYQHPVHITLDESAYVPIQQSVDCVQAILAEQRTAYGINTGFGLLASTRIATEDLENLQRSIVLSHAAGVGEANDDAIVRLIMVLKINSLARGFSGIRLEVIQALITLVNAGVYPHIPLKGSVGASGDLAPLAHMSLLLLGEGKARYQGEWLPAHTALAQAGLQPLTLAAKEGLALLNGTQVSAAYALRGLFEAEDLYAAASVFGCLTVDAALGSRSPFDARIHAVRGQRGQIDAASTYRHLLGERSEISESHKNCDKVQDPYSLRCQPQVMGACLGQIRQAAEVLAIESNAVSDNPLVFAEQGDVLSGGNFHAEPVAMAADNLALALAEVGSLSECRISLMMDKHMSQLPPFLVENGGVNSGFMIAQVTAAALTSENKGLAFPASVDSIPTSANQEDHVSMAPRAGKRLWEMAENVRNILAIEWLAACQGLDLRKGLRTSAILEPARQLLRQHVTYYDKDRFFAPDIEVASQLIAQRHMNELMPAKLLPSL | not soluble |
| MKTVMATGTFDIIHPGHGFFLEEARKLGGEDARLVVVLARDSTVRARKRTPIVGEKQRLEVVRMLKPVDEAYLGSETDMFEIVHRIKPDIIAIGPDQKFDVDELRDELRRRGLGCEVRRIEKYRDAELDSTCKIIKRIRSMEFDEDSLKNC | not soluble |
| MKTYNIPVEATLEVIGGKWKVVILCHLKKDKKRTCELKQLMSGITQKMLTQQLRELEEDGVIERKVYNQVPPKVEYSLTDYGHSLDSILDTLCNWGENHLEKNGNTSMLITAAE | not soluble |
| MKVAIIACQKMVEMGCPGKEACVSCFKAINEKSGAFERYKDVELVAFTTCGGCPGRRFPMRVKLLKTAAGAEAIHIANCTFLQPECPYINFDEICKKLMEELEIPIVFGTHTLVKKGEVVCTCGDNKE | not soluble |
| MKVEKEFPLMNFSLRRLPLFILIKTRKQTIEMNLRKKGHGIFFSRFGVFISKKKNHINICTLLLTKHPYTKGFPRQNVVETILFRRNSKTHFGRPATRRRPLGEREVNPSARSLG | soluble |
| MKVIAVNGGPRKQWNTATLLHKALEGAQSAGAETDLFHLYDLNYKGCISCFGCKRKNSSRIGHCVLKDELTPLLEEVLKCDALLLGSPIYFGNVTGAMRSFLERLFFSLLSYNEGQRTVFPRKVASGFIYTMNVPEDFLPQLEHHHHHH | soluble |
